Experimental data: PMC9652331, “Cryo-EM structures of human m6A writer complexes”

Target: HAKAI;WTAP;VIRMA;ZC3H13 (1106-1668);METTL3;METTL14 (Homo sapiens;Homo sapiens;Homo …, UniProt Q75N03;Q15007;Q69YN4;Q5T200;Q86U44;Q9HCE5 …, |||||)
Assay: s4U UV crosslinking MS; sites METTL3 F321; VIRMA P140, E1597, F1706; EMSA: 5 nM FAM-RNA, 20 mM HEPES pH 7.5, 100 mM KCl, 10% glycerol, 1 mM DTT, 25 C, 20 min; 8% native PAGE in 1x TBE at 4 C; Kd from loss of free RNA, Hill fit, n
Settings: protein: recombinant;recombinant;recombinant;recombinant;recombinant;recombinant, tags: untagged;N-6xHis;N-6xHis;N-Twin-Strep;N-GST-TEV, removed;N-6xHis-TEV

B1: s4U-ACTB-1 RNA (ssRNA)
RNA: GGCCCCUCCAUCGUCCACCGCAAAUGCUUCUAGGCGGACUAUGACUUAGUUGCGUUACACCCUUUCUUGACAAAACCUAACUUGCACAGAAAACA
modifications: 4-thiouridine (s4U); positions not given
binding result: binds
